Holding throughout (assay): cryo-EM structure
The target in experiment [1] is T1, Rpn6 (S. cerevisiae, UniProt Q12377 1-434).
T1 sequence (looked up): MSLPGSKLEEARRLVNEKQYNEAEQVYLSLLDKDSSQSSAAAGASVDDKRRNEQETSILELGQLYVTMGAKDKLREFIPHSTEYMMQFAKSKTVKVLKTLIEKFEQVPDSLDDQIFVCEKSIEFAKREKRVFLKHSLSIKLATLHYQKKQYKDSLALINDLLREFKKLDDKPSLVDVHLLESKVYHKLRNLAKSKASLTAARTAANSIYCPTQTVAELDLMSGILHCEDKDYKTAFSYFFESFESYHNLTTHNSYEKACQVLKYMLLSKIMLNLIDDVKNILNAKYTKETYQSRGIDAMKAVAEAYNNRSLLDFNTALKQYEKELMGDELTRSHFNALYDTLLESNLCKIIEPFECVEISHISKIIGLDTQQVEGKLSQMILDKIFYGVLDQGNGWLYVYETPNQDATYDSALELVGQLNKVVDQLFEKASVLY

Experiment [2] deals with T2, Rpn5 (S. cerevisiae, UniProt Q12250 1-445).
T2 sequence (looked up): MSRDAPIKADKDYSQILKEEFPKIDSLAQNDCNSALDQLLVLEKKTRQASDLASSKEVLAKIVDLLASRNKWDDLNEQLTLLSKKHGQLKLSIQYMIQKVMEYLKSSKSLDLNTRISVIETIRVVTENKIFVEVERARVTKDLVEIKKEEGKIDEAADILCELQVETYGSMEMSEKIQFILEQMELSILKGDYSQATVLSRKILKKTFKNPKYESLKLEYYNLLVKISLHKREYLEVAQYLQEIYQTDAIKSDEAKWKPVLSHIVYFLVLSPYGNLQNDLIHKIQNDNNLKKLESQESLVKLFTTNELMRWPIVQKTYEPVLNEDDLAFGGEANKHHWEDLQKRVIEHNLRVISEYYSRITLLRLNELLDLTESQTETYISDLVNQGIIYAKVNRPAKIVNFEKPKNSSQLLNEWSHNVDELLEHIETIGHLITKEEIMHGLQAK

Experiment [3] deals with T3, Rpn7 (S. cerevisiae, UniProt Q06103 1-429).
T3 sequence (looked up): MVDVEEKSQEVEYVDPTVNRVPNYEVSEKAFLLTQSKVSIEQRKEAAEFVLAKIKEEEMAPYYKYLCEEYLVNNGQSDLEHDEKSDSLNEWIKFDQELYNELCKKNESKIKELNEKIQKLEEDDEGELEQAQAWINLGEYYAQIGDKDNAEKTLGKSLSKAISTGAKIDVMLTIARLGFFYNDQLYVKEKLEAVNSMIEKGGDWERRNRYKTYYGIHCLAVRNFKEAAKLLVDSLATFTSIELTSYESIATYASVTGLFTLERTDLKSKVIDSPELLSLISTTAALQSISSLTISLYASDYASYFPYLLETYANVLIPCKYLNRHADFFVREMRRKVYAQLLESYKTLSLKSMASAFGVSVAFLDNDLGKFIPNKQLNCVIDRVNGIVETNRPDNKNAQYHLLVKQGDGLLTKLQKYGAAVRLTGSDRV

Experiment [4] has as its target T4, Rpt4 (S. cerevisiae, UniProt P53549 1-437).
T4 sequence (looked up): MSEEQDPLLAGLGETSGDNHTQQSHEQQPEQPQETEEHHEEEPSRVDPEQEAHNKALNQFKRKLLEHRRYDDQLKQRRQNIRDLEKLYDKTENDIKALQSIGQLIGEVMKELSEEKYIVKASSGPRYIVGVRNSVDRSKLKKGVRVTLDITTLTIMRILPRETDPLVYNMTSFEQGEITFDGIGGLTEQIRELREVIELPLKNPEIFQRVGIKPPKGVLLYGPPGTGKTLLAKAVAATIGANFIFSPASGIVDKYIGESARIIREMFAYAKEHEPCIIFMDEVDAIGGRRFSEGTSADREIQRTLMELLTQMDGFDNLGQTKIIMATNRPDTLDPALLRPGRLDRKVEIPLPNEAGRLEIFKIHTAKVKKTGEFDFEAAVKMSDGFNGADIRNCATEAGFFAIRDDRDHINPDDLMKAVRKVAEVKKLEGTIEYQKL

For experiment [5], the target named is T5, Rpt5 (S. cerevisiae, UniProt P33297 1-434).
T5 sequence (looked up): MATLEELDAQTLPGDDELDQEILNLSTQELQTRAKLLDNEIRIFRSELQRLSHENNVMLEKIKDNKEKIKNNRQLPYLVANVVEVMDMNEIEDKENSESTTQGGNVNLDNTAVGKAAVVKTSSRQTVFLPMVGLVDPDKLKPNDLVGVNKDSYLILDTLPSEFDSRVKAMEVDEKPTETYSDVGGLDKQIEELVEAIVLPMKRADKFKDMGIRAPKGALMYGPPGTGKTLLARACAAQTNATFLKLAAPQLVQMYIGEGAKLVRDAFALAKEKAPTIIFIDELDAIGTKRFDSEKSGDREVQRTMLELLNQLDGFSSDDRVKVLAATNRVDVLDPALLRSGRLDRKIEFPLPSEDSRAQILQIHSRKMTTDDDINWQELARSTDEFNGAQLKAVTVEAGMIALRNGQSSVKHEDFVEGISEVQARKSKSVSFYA

B1: Rpt3 (natural protein, S. cerevisiae, UniProt P33298 1-428, looked up)
chain: MEELGIVTPVEKAVEEKPAVKSYASLLAQLNGTVNNNSALSNVNSDIYFKLKKLEKEYELLTLQEDYIKDEQRHLKRELKRAQEEVKRIQSVPLVIGQFLEPIDQNTGIVSSTTGMSYVVRILSTLDRELLKPSMSVALHRHSNALVDILPPDSDSSISVMGENEKPDVTYADVGGLDMQKQEIREAVELPLVQADLYEQIGIDPPRGVLLYGPPGTGKTMLVKAVANSTKAAFIRVNGSEFVHKYLGEGPRMVRDVFRLARENAPSIIFIDEVDSIATKRFDAQTGSDREVQRILIELLTQMDGFDQSTNVKVIMATNRADTLDPALLRPGRLDRKIEFPSLRDRRERRLIFGTIASKMSLAPEADLDSLIIRNDSLSGAVIAAIMQEAGLRAVRKNRYVILQSDLEEAYATQVKTDNTVDKFDFYK
On to B1, for which the binding result in experiment [1], in experiment [2] and in experiment [3] was “binds” throughout.

B2: Rpn10 (natural protein, S. cerevisiae, UniProt P38886 1-268, looked up)
chain: MVLEATVLVIDNSEYSRNGDFPRTRFEAQIDSVEFIFQAKRNSNPENTVGLISGAGANPRVLSTFTAEFGKILAGLHDTQIEGKLHMATALQIAQLTLKHRQNKVQHQRIVAFVCSPISDSRDELIRLAKTLKKNNVAVDIINFGEIEQNTELLDEFIAAVNNPQEETSHLLTVTPGPRLLYENIASSPIILEEGSSGMGAFGGSGGDSDANGTFMDFGVDPSMDPELAMALRLSMEEEQQRQERLRQQQQQQDQPEQSEQPEQHQDK
B2: the binding result in experiment [4] and in experiment [5] was “binds” in each case.

B3: Rpt6 (natural protein, S. cerevisiae, UniProt Q01939 1-405, looked up)
chain: MTAAVTSSNIVLETHESGIKPYFEQKIQETELKIRSKTENVRRLEAQRNALNDKVRFIKDELRLLQEPGSYVGEVIKIVSDKKVLVKVQPEGKYIVDVAKDINVKDLKASQRVCLRSDSYMLHKVLENKADPLVSLMMVEKVPDSTYDMVGGLTKQIKEIKEVIELPVKHPELFESLGIAQPKGVILYGPPGTGKTLLARAVAHHTDCKFIRVSGAELVQKYIGEGSRMVRELFVMAREHAPSIIFMDEIDSIGSTRVEGSGGGDSEVQRTMLELLNQLDGFETSKNIKIIMATNRLDILDPALLRPGRIDRKIEFPPPSVAARAEILRIHSRKMNLTRGINLRKVAEKMNGCSGADVKGVCTEAGMYALRERRIHVTQEDFELAVGKVMNKNQETAISVAKLFK
Take B3: the binding result in experiment [3] is recorded as “binds”.

Values taken from paper PMC3712289 (Nature structural & molecular biology, 2013).
